We go through two molecules from paper PMC9477884 (Communications Biology, 2022).

Data set [1] deals with the molecule itself. Kind of data set: SEC-MALS; MazE6 in solution; observed mol. wt. 17 kDa. A general note: Size exclusion chromatography separates by hydrodynamic size, large species first.
A further data set has as its target T1, MazE6 (UniProt P9WJ87 1-82).
T1 sequence: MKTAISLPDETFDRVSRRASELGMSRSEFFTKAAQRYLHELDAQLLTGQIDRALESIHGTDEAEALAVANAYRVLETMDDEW
Kind of data set: gel filtration. The conditions noted are these: protein: recombinant; chain copies: 2; blunt.

The term stoichiometry N denotes the number of molecules, sites or subunits per partner or assembly.

B1: MazE6 antitoxin (residue 1-82) (natural protein)
chain: MKTAISLPDETFDRVSRRASELGMSRSEFFTKAAQRYLHELDAQLLTGQIDRALESIHGTDEAEALAVANAYRVLETMDDEW
Consider B1, for which, in data set [1], the “stoichiometry N” value was 2.

B2: mazEF6 operator DNA (dsDNA)
DNA 1: CCGGTTATACTATCTGTA
DNA 2: TACAGATAGTATAACCGG
Consider B2, for which the binding result with MazE6 is listed as “binds”.
